Measurements as given in the supplement of paper PMC10567573.

B1: GNB5 (parent)
chain: DINSVRYYPSGDAFASGSDDATCR

Variants of: B1
Test: protein stability index of a GFP-peptide fusion (GPS, HEK-293T) (PSI 1-6); higher = more stable
Conditions: c terminus: a fixed tail appended
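Note: lentivirally expressed fusions sorted by FACS into six bins by GFP to DsRed ratio, PSI derived from sequencing read proportions per bin multiplied by bin number.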

| Variant | protein stability index |
| --- | --- |
| DRNSVRYYPSGDAFASGSDDATCR [I2R] | 4.36 |
| DSNSVRYYPSGDAFASGSDDATCR [I2S] | 4.6 |
| DQNSVRYYPSGDAFASGSDDATCR [I2Q] | 4.72 |
| DPNSVRYYPSGDAFASGSDDATCR [I2P] | 4.92 |
| DANSVRYYPSGDAFASGSDDATCR [I2A] | 4.41 |
| DDNSVRYYPSGDAFASGSDDATCR [I2D] | 5.39 |
| DGNSVRYYPSGDAFASGSDDATCR [I2G] | 4.54 |
| DHNSVRYYPSGDAFASGSDDATCR [I2H] | 4.51 |
| DVNSVRYYPSGDAFASGSDDATCR [I2V] | 3.93 |
| DENSVRYYPSGDAFASGSDDATCR [I2E] | 4.87 |
| DTNSVRYYPSGDAFASGSDDATCR [I2T] | 4.49 |
| DCNSVRYYPSGDAFASGSDDATCR [I2C] | 4.32 |
| DWNSVRYYPSGDAFASGSDDATCR [I2W] | 3.99 |
| DFNSVRYYPSGDAFASGSDDATCR [I2F] | 3.98 |
| DMNSVRYYPSGDAFASGSDDATCR [I2M] | 4.1 |
| DNNSVRYYPSGDAFASGSDDATCR [I2N] | 4.92 |
| DKNSVRYYPSGDAFASGSDDATCR [I2K] | 4.68 |
| DLNSVRYYPSGDAFASGSDDATCR [I2L] | 3.82 |
| DYNSVRYYPSGDAFASGSDDATCR [I2Y] | 4.32 |
| QINSVRYYPSGDAFASGSDDATCR [D1Q] | 4.23 |
| YINSVRYYPSGDAFASGSDDATCR [D1Y] | 2.5 |
| TINSVRYYPSGDAFASGSDDATCR [D1T] | 3.95 |
| WINSVRYYPSGDAFASGSDDATCR [D1W] | 2.68 |
| SINSVRYYPSGDAFASGSDDATCR [D1S] | 4.74 |

| Variant | protein stability index |
| --- | --- |
| RINSVRYYPSGDAFASGSDDATCR [D1R] | 4.04 |
| PINSVRYYPSGDAFASGSDDATCR [D1P] | 3.33 |
| VINSVRYYPSGDAFASGSDDATCR [D1V] | 3.58 |
| DINSVRFYPSGDAFASGSDDATCR [Y7F] | 3.87 |
| DINSVRMYPSGDAFASGSDDATCR [Y7M] | 4.12 |
| DINSVRTYPSGDAFASGSDDATCR [Y7T] | 4.64 |
| DINSVRSYPSGDAFASGSDDATCR [Y7S] | 4.69 |
| DINSVRGYPSGDAFASGSDDATCR [Y7G] | 4.39 |
| DINSVRRYPSGDAFASGSDDATCR [Y7R] | 4.2 |
| DINSVRQYPSGDAFASGSDDATCR [Y7Q] | 4.21 |
| DINSVRDYPSGDAFASGSDDATCR [Y7D] | 4.77 |
| DINSVRLYPSGDAFASGSDDATCR [Y7L] | 3.61 |
| DINSVRIYPSGDAFASGSDDATCR [Y7I] | 3.76 |
| DINSVREYPSGDAFASGSDDATCR [Y7E] | 5.19 |
| DINSVRPYPSGDAFASGSDDATCR [Y7P] | 4.46 |
| DINSVRVYPSGDAFASGSDDATCR [Y7V] | 4.51 |
| DINSVRKYPSGDAFASGSDDATCR [Y7K] | 4.35 |
| DINSVRHYPSGDAFASGSDDATCR [Y7H] | 4.38 |
| DINSVRWYPSGDAFASGSDDATCR [Y7W] | 3.11 |
| DINSVRNYPSGDAFASGSDDATCR [Y7N] | 4.26 |
| DINSVRAYPSGDAFASGSDDATCR [Y7A] | 4.5 |
| DINSVRCYPSGDAFASGSDDATCR [Y7C] | 3.87 |
| DINCVRYYPSGDAFASGSDDATCR [S4C] | 3.44 |
| DINKVRYYPSGDAFASGSDDATCR [S4K] | 4.08 |

| Variant | protein stability index |
| --- | --- |
| DINQVRYYPSGDAFASGSDDATCR [S4Q] | 3.83 |
| DINFVRYYPSGDAFASGSDDATCR [S4F] | 3.48 |
| DINNVRYYPSGDAFASGSDDATCR [S4N] | 3.55 |
| DINMVRYYPSGDAFASGSDDATCR [S4M] | 4.21 |
| DINTVRYYPSGDAFASGSDDATCR [S4T] | 4.23 |
| DINGVRYYPSGDAFASGSDDATCR [S4G] | 3.6 |
| DINVVRYYPSGDAFASGSDDATCR [S4V] | 2.55 |
| DINYVRYYPSGDAFASGSDDATCR [S4Y] | 3.75 |
| DINWVRYYPSGDAFASGSDDATCR [S4W] | 3.22 |
| DINEVRYYPSGDAFASGSDDATCR [S4E] | 4.29 |
| DINHVRYYPSGDAFASGSDDATCR [S4H] | 4.07 |
| DINDVRYYPSGDAFASGSDDATCR [S4D] | 4.53 |
| DINRVRYYPSGDAFASGSDDATCR [S4R] | 3.81 |
| DINPVRYYPSGDAFASGSDDATCR [S4P] | 4.32 |
| DINLVRYYPSGDAFASGSDDATCR [S4L] | 3.42 |
| DINIVRYYPSGDAFASGSDDATCR [S4I] | 3.55 |
| DINAVRYYPSGDAFASGSDDATCR [S4A] | 3.95 |
| DINSVIYYPSGDAFASGSDDATCR [R6I] | 3.88 |
| DINSVKYYPSGDAFASGSDDATCR [R6K] | 4.34 |
| DINSVAYYPSGDAFASGSDDATCR [R6A] | 4.44 |
| DINSVHYYPSGDAFASGSDDATCR [R6H] | 4.26 |
| DINSVYYYPSGDAFASGSDDATCR [R6Y] | 3.62 |
| DINSVEYYPSGDAFASGSDDATCR [R6E] | 5.13 |
| DINSVWYYPSGDAFASGSDDATCR [R6W] | 3.33 |

| Variant | protein stability index |
| --- | --- |
| DINSVPYYPSGDAFASGSDDATCR [R6P] | 4.29 |
| DINSVNYYPSGDAFASGSDDATCR [R6N] | 4.31 |
| DINSVGYYPSGDAFASGSDDATCR [R6G] | 4.3 |
| DINSVDYYPSGDAFASGSDDATCR [R6D] | 4.58 |
| DINSVMYYPSGDAFASGSDDATCR [R6M] | 4.04 |
| DINSVFYYPSGDAFASGSDDATCR [R6F] | 3.57 |
| DINSVTYYPSGDAFASGSDDATCR [R6T] | 4.82 |
| DINSVCYYPSGDAFASGSDDATCR [R6C] | 3.9 |
| DINSVLYYPSGDAFASGSDDATCR [R6L] | 3.56 |
| DINSVSYYPSGDAFASGSDDATCR [R6S] | 4.41 |
| DINSVVYYPSGDAFASGSDDATCR [R6V] | 3.91 |
| DINSVQYYPSGDAFASGSDDATCR [R6Q] | 4.64 |
| DINSIRYYPSGDAFASGSDDATCR [V5I] | 4.19 |
| DINSQRYYPSGDAFASGSDDATCR [V5Q] | 3.85 |
| DINSYRYYPSGDAFASGSDDATCR [V5Y] | 3.6 |
| DINSERYYPSGDAFASGSDDATCR [V5E] | 4.61 |
| DINSDRYYPSGDAFASGSDDATCR [V5D] | 4.41 |
| DINSKRYYPSGDAFASGSDDATCR [V5K] | 3.91 |
| DINSFRYYPSGDAFASGSDDATCR [V5F] | 3.74 |
| DINSWRYYPSGDAFASGSDDATCR [V5W] | 3.88 |
| DINSPRYYPSGDAFASGSDDATCR [V5P] | 4.51 |
| DINSCRYYPSGDAFASGSDDATCR [V5C] | 3.81 |
